Measured values from US20220204580A1 (AstraZeneca / MedImmune, published 2022).
Numbered stars: 1 amine (or outer) side, 2 acyl side, 3 side chain; on linkers, the order of the positions; unused ones are H or OH. Bridge positions count the residues as written; N and C are the ends. Square brackets hold non-standard residues; d marks the D form. Side chains are listed from the residue outwards. Ends that are not written are not given here. * marks the point of attachment. C18 diacid = O=C(O)CCCCCCCCCCCCCCCCC(=O)*; γGlu = O=C(O)[C@H](CCC(=O)[*:2])N[*:1]; Aib = CC(C)(N)C(=O)O

T1: human amylin receptor (calcitonin receptor co-expressed with receptor activity modifying protein, RAMP3) (human, UniProt P30988 25-474; O60896 24-148)
T1 sequence (looked up) 1: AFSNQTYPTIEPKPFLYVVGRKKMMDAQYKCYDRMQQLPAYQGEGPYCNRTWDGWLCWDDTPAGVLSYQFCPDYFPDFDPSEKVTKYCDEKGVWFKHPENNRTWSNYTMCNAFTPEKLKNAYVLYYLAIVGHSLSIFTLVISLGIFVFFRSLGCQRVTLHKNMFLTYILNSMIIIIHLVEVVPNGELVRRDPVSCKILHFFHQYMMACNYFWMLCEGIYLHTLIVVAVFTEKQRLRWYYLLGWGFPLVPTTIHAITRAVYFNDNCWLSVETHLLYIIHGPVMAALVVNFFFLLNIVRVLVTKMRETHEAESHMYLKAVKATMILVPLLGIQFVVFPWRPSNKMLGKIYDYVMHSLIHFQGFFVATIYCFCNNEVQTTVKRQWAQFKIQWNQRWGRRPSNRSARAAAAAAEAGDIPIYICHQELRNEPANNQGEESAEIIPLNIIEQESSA
T1 sequence (looked up) 2: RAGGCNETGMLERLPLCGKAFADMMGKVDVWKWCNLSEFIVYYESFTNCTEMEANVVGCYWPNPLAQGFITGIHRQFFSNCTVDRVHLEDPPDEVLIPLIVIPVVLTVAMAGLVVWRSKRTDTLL

T2: human calcitonin receptor (human, UniProt P30988 25-474)
T2 sequence (looked up): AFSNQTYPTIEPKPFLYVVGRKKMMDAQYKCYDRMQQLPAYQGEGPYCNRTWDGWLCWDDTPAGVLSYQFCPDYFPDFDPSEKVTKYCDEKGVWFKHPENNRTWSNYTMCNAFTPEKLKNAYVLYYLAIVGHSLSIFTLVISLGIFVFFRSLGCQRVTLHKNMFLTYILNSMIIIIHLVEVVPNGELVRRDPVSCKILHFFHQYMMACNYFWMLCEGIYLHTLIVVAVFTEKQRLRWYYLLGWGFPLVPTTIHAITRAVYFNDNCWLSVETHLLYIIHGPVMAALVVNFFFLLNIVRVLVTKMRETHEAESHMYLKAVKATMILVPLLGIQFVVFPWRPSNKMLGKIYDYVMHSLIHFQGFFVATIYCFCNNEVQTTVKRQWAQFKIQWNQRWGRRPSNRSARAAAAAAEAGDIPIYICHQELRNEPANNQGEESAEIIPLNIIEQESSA


What was measured:
[1] = molecular target: T1, human amylin receptor (calcitonin …); test: cell-based or functional assay
[2] = molecular target: T2, human calcitonin receptor; test: cell-based or functional assay

Row | Binder | EC50 (cAMP production) [1] [pM] | Ratio (EC50 hCTR / EC50 hAMYR3) [1] | EC50 (cAMP production) [2] [pM]
1 | K([γGlu-C18 diacid])KCNTATCATQRLANFLVHSSNNFGP[Aib]LPPTNVGSNTY-NH2 (disulfide 3-8; N-terminus assumed; SMILES CC(C)C[C@H](NC(=O)[C@H](CCCNC(=N)N)NC(=O)[C@H](CCC(N)=O)NC(=O)[C@@H](NC(=O)[C@H](C)NC(=O)[C@@H]1CSSC[C@H](NC(=O)[C@H](CCCCN)NC(=O)[C@@H](N)CCCCNC(=O)CC[C@H](NC(=O)CCCCCCCCCCCCCCCCC(=O)O)C(=O)O)C(=O)N[C@@H](CC(N)=O)C(=O)N[C@@H]([C@@H](C)O)C(=O)N[C@@H](C)C(=O)N[C@@H]([C@@H](C)O)C(=O)N1)[C@@H](C)O)C(=O)N[C@@H](C)C(=O)N[C@@H](CC(N)=O)C(=O)N[C@@H](Cc1ccccc1)C(=O)N[C@@H](CC(C)C)C(=O)N[C@H](C(=O)N[C@@H](Cc1c[nH]cn1)C(=O)N[C@@H](CO)C(=O)N[C@@H](CO)C(=O)N[C@@H](CC(N)=O)C(=O)N[C@@H](CC(N)=O)C(=O)N[C@@H](Cc1ccccc1)C(=O)NCC(=O)N1CCC[C@H]1C(=O)NC(C)(C)C(=O)N[C@@H](CC(C)C)C(=O)N1CCC[C@H]1C(=O)N1CCC[C@H]1C(=O)N[C@H](C(=O)N[C@@H](CC(N)=O)C(=O)N[C@H](C(=O)NCC(=O)N[C@@H](CO)C(=O)N[C@@H](CC(N)=O)C(=O)N[C@H](C(=O)N[C@@H](Cc1ccc(O)cc1)C(N)=O)[C@@H](C)O)C(C)C)[C@@H](C)O)C(C)C) [Peptide 106 (SEQ ID NO: 106)] | 473 | 7 | 3420
2 | K([γGlu-C18 diacid])KCNTATCATQRLANFLVHSSNNFGPI[Aib]PPTNVGSNTY-NH2 (disulfide 3-8; N-terminus assumed; SMILES CC[C@H](C)[C@H](NC(=O)[C@@H]1CCCN1C(=O)CNC(=O)[C@H](Cc1ccccc1)NC(=O)[C@H](CC(N)=O)NC(=O)[C@H](CC(N)=O)NC(=O)[C@H](CO)NC(=O)[C@H](CO)NC(=O)[C@H](Cc1c[nH]cn1)NC(=O)[C@@H](NC(=O)[C@H](CC(C)C)NC(=O)[C@H](Cc1ccccc1)NC(=O)[C@H](CC(N)=O)NC(=O)[C@H](C)NC(=O)[C@H](CC(C)C)NC(=O)[C@H](CCCNC(=N)N)NC(=O)[C@H](CCC(N)=O)NC(=O)[C@@H](NC(=O)[C@H](C)NC(=O)[C@@H]1CSSC[C@H](NC(=O)[C@H](CCCCN)NC(=O)[C@@H](N)CCCCNC(=O)CC[C@H](NC(=O)CCCCCCCCCCCCCCCCC(=O)O)C(=O)O)C(=O)N[C@@H](CC(N)=O)C(=O)N[C@@H]([C@@H](C)O)C(=O)N[C@@H](C)C(=O)N[C@@H]([C@@H](C)O)C(=O)N1)[C@@H](C)O)C(C)C)C(=O)NC(C)(C)C(=O)N1CCC[C@H]1C(=O)N1CCC[C@H]1C(=O)N[C@H](C(=O)N[C@@H](CC(N)=O)C(=O)N[C@H](C(=O)NCC(=O)N[C@@H](CO)C(=O)N[C@@H](CC(N)=O)C(=O)N[C@H](C(=O)N[C@@H](Cc1ccc(O)cc1)C(N)=O)[C@@H](C)O)C(C)C)[C@@H](C)O) [Peptide 108 (SEQ ID NO: 108)] | 801 | 8 | 6810
3 | K([γGlu-C18 diacid])KCNTATCATQRLANFLVHSSN[Aib]FGPILPPTNVGSNTY-NH2 (disulfide 3-8; N-terminus assumed; SMILES CC[C@H](C)[C@H](NC(=O)[C@@H]1CCCN1C(=O)CNC(=O)[C@H](Cc1ccccc1)NC(=O)C(C)(C)NC(=O)[C@H](CC(N)=O)NC(=O)[C@H](CO)NC(=O)[C@H](CO)NC(=O)[C@H](Cc1c[nH]cn1)NC(=O)[C@@H](NC(=O)[C@H](CC(C)C)NC(=O)[C@H](Cc1ccccc1)NC(=O)[C@H](CC(N)=O)NC(=O)[C@H](C)NC(=O)[C@H](CC(C)C)NC(=O)[C@H](CCCNC(=N)N)NC(=O)[C@H](CCC(N)=O)NC(=O)[C@@H](NC(=O)[C@H](C)NC(=O)[C@@H]1CSSC[C@H](NC(=O)[C@H](CCCCN)NC(=O)[C@@H](N)CCCCNC(=O)CC[C@H](NC(=O)CCCCCCCCCCCCCCCCC(=O)O)C(=O)O)C(=O)N[C@@H](CC(N)=O)C(=O)N[C@@H]([C@@H](C)O)C(=O)N[C@@H](C)C(=O)N[C@@H]([C@@H](C)O)C(=O)N1)[C@@H](C)O)C(C)C)C(=O)N[C@@H](CC(C)C)C(=O)N1CCC[C@H]1C(=O)N1CCC[C@H]1C(=O)N[C@H](C(=O)N[C@@H](CC(N)=O)C(=O)N[C@H](C(=O)NCC(=O)N[C@@H](CO)C(=O)N[C@@H](CC(N)=O)C(=O)N[C@H](C(=O)N[C@@H](Cc1ccc(O)cc1)C(N)=O)[C@@H](C)O)C(C)C)[C@@H](C)O) [Peptide 109 (SEQ ID NO: 109)] | 82 | 2 | 176
4 | K([γGlu-C18 diacid])KCNTATCATQRLANFLRHSSNNFGP[Aib]LPPTNVGSNTY-NH2 (disulfide 3-8; N-terminus assumed; SMILES CC(C)C[C@H](NC(=O)[C@H](CCCNC(=N)N)NC(=O)[C@H](CCC(N)=O)NC(=O)[C@@H](NC(=O)[C@H](C)NC(=O)[C@@H]1CSSC[C@H](NC(=O)[C@H](CCCCN)NC(=O)[C@@H](N)CCCCNC(=O)CC[C@H](NC(=O)CCCCCCCCCCCCCCCCC(=O)O)C(=O)O)C(=O)N[C@@H](CC(N)=O)C(=O)N[C@@H]([C@@H](C)O)C(=O)N[C@@H](C)C(=O)N[C@@H]([C@@H](C)O)C(=O)N1)[C@@H](C)O)C(=O)N[C@@H](C)C(=O)N[C@@H](CC(N)=O)C(=O)N[C@@H](Cc1ccccc1)C(=O)N[C@@H](CC(C)C)C(=O)N[C@@H](CCCNC(=N)N)C(=O)N[C@@H](Cc1c[nH]cn1)C(=O)N[C@@H](CO)C(=O)N[C@@H](CO)C(=O)N[C@@H](CC(N)=O)C(=O)N[C@@H](CC(N)=O)C(=O)N[C@@H](Cc1ccccc1)C(=O)NCC(=O)N1CCC[C@H]1C(=O)NC(C)(C)C(=O)N[C@@H](CC(C)C)C(=O)N1CCC[C@H]1C(=O)N1CCC[C@H]1C(=O)N[C@H](C(=O)N[C@@H](CC(N)=O)C(=O)N[C@H](C(=O)NCC(=O)N[C@@H](CO)C(=O)N[C@@H](CC(N)=O)C(=O)N[C@H](C(=O)N[C@@H](Cc1ccc(O)cc1)C(N)=O)[C@@H](C)O)C(C)C)[C@@H](C)O) [Peptide 107 (SEQ ID NO: 107)] | 1070 | 25 | 26300
